Key:
[1] = target: T1, protransglutaminase of Streptoverticillium mobaraense IFO13819 (pro-MTG) (UniProt P81453)
T1 sequence: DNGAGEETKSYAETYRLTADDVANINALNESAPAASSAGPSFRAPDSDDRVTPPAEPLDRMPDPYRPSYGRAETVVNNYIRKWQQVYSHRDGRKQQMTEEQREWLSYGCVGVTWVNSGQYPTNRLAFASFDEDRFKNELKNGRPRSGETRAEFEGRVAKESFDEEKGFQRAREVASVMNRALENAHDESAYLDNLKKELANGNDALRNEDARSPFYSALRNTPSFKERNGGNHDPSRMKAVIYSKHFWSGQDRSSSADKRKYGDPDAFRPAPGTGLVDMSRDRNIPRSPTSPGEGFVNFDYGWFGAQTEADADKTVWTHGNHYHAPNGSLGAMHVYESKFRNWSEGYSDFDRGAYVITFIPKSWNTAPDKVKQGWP

[2] = system: insulin B
[3] = target: T2, Streptomyces subtilisin inhibitor (SSI) derived from actinomycetes (UniProt P01006)
T2 sequence: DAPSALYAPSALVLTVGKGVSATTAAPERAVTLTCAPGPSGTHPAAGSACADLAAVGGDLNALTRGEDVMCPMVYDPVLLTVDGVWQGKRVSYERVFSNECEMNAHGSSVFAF

Row | Substance | conversion of pro-MTG to mature MTG (SDS-PAGE time course; TG activity by the hydroxamate method), substrate:enzyme = 200:1 [1] | cleavage points (HPLC separation and sequencing of peptide fragments) [2] | relative activity (Gly-Pro-Ser-Phe-Arg-Ala-Pro-Asp-Ser cleavage activity, absence of compounds = 100%) [3] | amount of protease needed to convert pro-MTG to active MTG (TG activity by the hydroxamate method, MTG protein by reverse phase chromatography) [1] | cleavage points (HPLC separation and sequencing of peptide fragments) [1] | amount of protease needed to convert pro-MTG to active MTG (TG activity by the hydroxamate method) [1]
1 | neutral metalloprotease SGMP II from Streptomyces griseus | pro-MTGs were converted to the mature forms, and the produced MTGs were not reduced even after a long-term reaction | – | – | – | – | –
2 | neutral metalloprotease SVP70 from Streptoverticillium mobaraense IFO13819 | pro-MTGs were converted to the mature forms, and the produced MTGs were not reduced even after a long-term reaction | cleaved before (at N-terminal side of) especially Phe, often Leu, sometimes Tyr, Trp, Ile, Val | underwent strong inhibitory action | SVP could convert pro-MTG to active MTG with an amount as small as 1/500 of the substrate | cleaved before (at N-terminal side of) especially Phe, often Leu, sometimes Tyr, Trp, Ile, Val | –
3 | serine protease SAM-P45 (Streptomyces albogriseolus) | – | – | – | when SAM-P45 was added at an amount of 1/10 of the substrate, the conversion into the active MTG was observed, but a decrease in the amount and the activity of MTG-protein was observed | – | generated only insufficient transglutaminase activity even at an amount of 1/50 of the substrate, and that the complete conversion to the active form was not observed

From patent US20100159560
